Consider 3 molecules from paper PMC1802561 (Nucleic Acids Research, 2006).

The stoichiometry N is a count of units in the complex or per binding partner.

Data set [1] deals with T1, native YoeB (Escherichia coli, UniProt P69348 1-84).
T1 sequence: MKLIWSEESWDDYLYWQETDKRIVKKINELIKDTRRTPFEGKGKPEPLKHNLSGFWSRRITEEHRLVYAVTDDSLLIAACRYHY
In words: native gel or EMSA.

Data set [2] deals with the molecule itself. In words: cross-linking.
The target in data set [3] is T2, YoeB-His6 (Escherichia coli, UniProt P69348 1-84).
T2 sequence: T1 sequence
As to the kind of experiment: cross-linking.

Data set [4] deals with T3, His10-YefM (Escherichia coli, UniProt P69346 1-83).
T3 sequence: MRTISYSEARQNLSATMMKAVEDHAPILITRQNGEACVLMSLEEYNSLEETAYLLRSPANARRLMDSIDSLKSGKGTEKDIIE
As to the kind of experiment: EMSA. For orientation: A gel shift assay detects complexes by their altered migration in electrophoresis.

In data set [5] the target is T4, YefM (native, intein-cleaved) (Escherichia coli, UniProt P69346 1-83).
T4 sequence: T3 sequence
In words: EMSA.

The target in data set [6] is T5, YefM-His6 (Escherichia coli, UniProt P69346 1-83).
T5 sequence: T3 sequence
As to the kind of experiment: EMSA.

The target of data set [7] is T6, YoeB (native, untagged) (Escherichia coli, UniProt P69348 1-84).
T6 sequence: T1 sequence
As to the kind of experiment: EMSA.

Data set [8] deals with T7, YoeB-His6 (Escherichia coli, UniProt P69348 1-84).
T7 sequence: T1 sequence
In words: EMSA.

In data set [9] the target is T8, YefM (native, intein-cleaved);YoeB (native, untagged) (Escherichia coli;Escherichia coli, UniProt P69346;P69348 1-83;1-84, |).
T8 sequence 1: T3 sequence
T8 sequence 2: T1 sequence
In words: EMSA.

B1: native YefM (natural protein)
chain: T3 sequence
As to B1, the binding result in data set [1] is “binds”. Besides, in data set [2], the “stoichiometry N” value is 2.

B2: YefM of the YefM–YoeB–His6 complex (natural protein)
chain: T3 sequence
Take B2: the binding result in [3] is on record as “binds”. Also, in data set [2], the “stoichiometry N” value is 2.

B3: 99 bp yefM-yoeB promoter-operator (oligos 1/2) (dsDNA)
DNA 1: GTCGAGAATTCTCTACAAACTAATTAATAAATAGTTAATTAACGCTCATCATTGTACAATGAACTGTACAAAAGAGGAGATTGACATGGGATCCAGTGC
DNA 2: GCACTGGATCCCATGTCAATCTCCTCTTTTGTACAGTTCATTGTACAATGATGAGCGTTAATTAACTATTTATTAATTAGTTTGTAGAGAATTCTCGAC
For B3, the binding result in [4] was “binds”; in data set [5], “binds”; in data set [6], “binds”; in data set [7], “no binding”; in data set [8] it was “no binding”; in data set [9], “binds”.
